Assay results as given in patent US20220348685A1 (ACCELERON PHARMA, published 2022).

T1: human ALK7-EK-Fc comprising protein (human, UniProt Q8NER5 22-113)
T1 construct: also called ALK7-Fc comprising protein; Human ALK7-Fc comprising protein; not shown: 'EK' segment between ALK7 and Fc; Fc portion
T1 sequence: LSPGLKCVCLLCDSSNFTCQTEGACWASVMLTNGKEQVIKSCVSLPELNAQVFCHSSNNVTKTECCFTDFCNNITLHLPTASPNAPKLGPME


Target: T1, human ALK7-EK-Fc comprising protein
Assay: SPR (Biacore T100/T200), antibody captured on FAB chip, ALK7-Fc protein as analyte, 1:1 model
Description: Experiments were performed using a Biacore T100/T200 biosensor (Biacore/GE Healthcare) at 25 and 37° C. ALK7 antibodies were captured on custom made FAB chip. A concentration series of ALK7-Fc comprising protein was injected over the flow cells at a flow rate of […]. To obtain kinetic rate constants the corrected data were fit to a 1:1 interaction model using BiaEvaluation software (GE Healthcare). The equilibrium binding constant KD was determined by the ratio of binding rate constants kd/ka.

Row | Kd | koff | kon | Binder
1 | 0.39 nM | 1.43e-05 s⁻¹ | 36600 M⁻¹ s⁻¹ | P03 (antibody, V domains shown) VH: QVQLVQSGAEVKKPGASVKVSCKASGYTFAGYNMHWVRQAPGQGLEWVGIINPNSGWTNYAQKFQGRVTMTRDTSVSAAYMELSRLRSDDTAVYYCARDPVGARYEVFDYWGQGTLVTVSS VL: EIVMTQSPATLSVSPGERATLSCQASQSVSSNLAWYQQKPGQAPRLLIYGASTIATGIPARFSGSGSGTEFTLTISSLQSEDFAVYYCQQAYAFPLTFGGGTKVEIK
2 | 1.42 nM | 4.7e-05 s⁻¹ | 33100 M⁻¹ s⁻¹ | Q04 (antibody, V domains shown) VH: QVQLVQSGAEVKKPGASVKVSCKASGYTFAGYNMHWVRQAPGQGLEWVGIINPNSGWTNYAQKFQGRVTMTRDTSVSAAYMELSRLRSDDTAVYYCARDPVGARYEVFDYWGQGTLVTVSS VL: EIVMTQSPATLSVSPGERATLSCKASQSVSSNLAWYQQKPGQAPRLLIYGASTRATGIPARFSGSGSGTEFTLTISSLQSEDFAVYYCQQAVKFPLTFGGGTKVEIK
3 | 1 nM | 4.32e-05 s⁻¹ | 43100 M⁻¹ s⁻¹ | M01 (antibody, V domains shown, Kappa light chain is implied by the anti-kappa reagent and KappaSelect; In SPR the antibody was captured on a custom FAB chip; also called ALK7 mAb M01) VH: QLQLQESGPGLVKPSETLSLTCTVSGGSISSSAYYWAWIRQPPGKGLEWIGSIYLSGSTTYNPSLKSRVTISVDTSKNQFSLKLSSVTAADTAVYYCARDGRYQSRSPDYYYGMDVWGQGTTVTVSS VL: EIVLTQSPGTLSLSPGERATLSCRASQSVSDNYLAWYQQKPGQAPRLLIYGASNIATGIPDRFSGSGSGTDFTLTISRLEPEDFAVYYCASVFSYPFTFGGGTKVEIK
4 | 0.87 nM | 5.2e-05 s⁻¹ | 59800 M⁻¹ s⁻¹ | N02 (antibody, V domains shown) VH: QLQLQESGPGLVKPSETLSLTCTVSGGSISSSAYYWAWIRQPPGKGLEWIGSIYLSGSTTYNPSLKSRVTISVDTSKNQFSLKLSSVTAADTAVYYCARDGRYQSRSPDYYYGMDVWGQGTTVTVSS VL: EIVLTQSPGTLSLSPGERATLSCRASQSVSSSYLAWYQQKPGQAPRLLIYGASSTAYGIPDRFSGSGSGTDFTLTISRLEPEDFAVYYCQQLVAYPFTFGGGTKVEIK
